In publication PMC13127578, “Mavacamten inhibits myosin activity by stabilizing the myosin interacting-heads motif and stalling motor force generation” (Science Advances, 2026):
Blank lines part the entries; values can stand above or below the binder they belong to.

Legend:
[1] = target: T1, single-headed human beta-cardiac myosin S1 (cS1), MYH7 residues 1 to 834 fused to GFP and FLAG (human, UniProt P12883 1-834); test: cross-linking; quantitative XL-MS with DSBU (600 μM, 20 min, 25°C) on 4 μM purified cS1 with bound light chains, 10 mM Mops pH 7.3, 50 mM KCl, 1 mM ATP, with 50 μM mavacamten or DMSO; conditions: both partners purified
T1 construct: beta-cardiac myosin heavy chain (MYH7), human, residues 1 to 834, followed by a short linker, a GFP domain and a FLAG tag; also called cS1gfp

[2] = target: the molecule itself; test: cryo-EM structure; IHM_(mava): 2 μM cHMM with 1 mM ATP, 50 μM mavacamten (5% DMSO), cross-linked with 1 mM BS3, 50 mM KCl, 10 mM Mops pH 7; Lacey continuous carbon grid; ADP.Pi state; 3.7 Å

- binding result [1]: binds
B1: human MYL2 (vLC2), ventricular regulatory light chain (natural protein, UniProt P10916 1-166, looked up)
chain: MAPKKAKKRAGGANSNVFSMFEQTQIQEFKEAFTIMDQNRDGFIDKNDLRDTFAALGRVNVKNEEIDEMIKEAPGPINFTVFLTMFGEKLKGADPEETILNAFKVFDPEGKGVLKADYVREMLTTQAERFSKEEVDQMFAAFPPDVTGNLDYKNLVHIITHGEEKD
notes: myosin regulatory light chain MYL2 (vLC2), human; also called RLC

B2: human beta-cardiac heavy meromyosin (β-cHMM) heavy chain, MYH7 residues 1 to 1137 (domain or fragment, UniProt P12883 1-1137, looked up)
chain: MGDSEMAVFGAAAPYLRKSEKERLEAQTRPFDLKKDVFVPDDKQEFVKAKIVSREGGKVTAETEYGKTVTVKEDQVMQQNPPKFDKIEDMAMLTFLHEPAVLYNLKDRYGSWMIYTYSGLFCVTVNPYKWLPVYTPEVVAAYRGKKRSEAPPHIFSISDNAYQYMLTDRENQSILITGESGAGKTVNTKRVIQYFAVIAAIGDRSKKDQSPGKGTLEDQIIQANPALEAFGNAKTVRNDNSSRFGKFIRIHFGATGKLASADIETYLLEKSRVIFQLKAERDYHIFYQILSNKKPELLDMLLITNNPYDYAFISQGETTVASIDDAEELMATDNAFDVLGFTSEEKNSMYKLTGAIMHFGNMKFKLKQREEQAEPDGTEEADKSAYLMGLNSADLLKGLCHPRVKVGNEYVTKGQNVQQVIYATGALAKAVYERMFNWMVTRINATLETKQPRQYFIGVLDIAGFEIFDFNSFEQLCINFTNEKLQQFFNHHMFVLEQEEYKKEGIEWTFIDFGMDLQACIDLIEKPMGIMSILEEECMFPKATDMTFKAKLFDNHLGKSANFQKPRNIKGKPEAHFSLIHYAGIVDYNIIGWLQKNKDPLNETVVGLYQKSSLKLLSTLFANYAGADAPIEKGKGKAKKGSSFQTVSALHRENLNKLMTNLRSTHPHFVRCIIPNETKSPGVMDNPLVMHQLRCNGVLEGIRICRKGFPNRILYGDFRQRYRILNPAAIPEGQFIDSRKGAEKLLSSLDIDHNQYKFGHTKVFFKAGLLGLLEEMRDERLSRIITRIQAQSRGVLARMEYKKLLERRDSLLVIQWNIRAFMGVKNWPWMKLYFKIKPLLKSAEREKEMASMKEEFTRLKEALEKSEARRKELEEKMVSLLQEKNDLQLQVQAEQDNLADAEERCDQLIKNKIQLEAKVKEMNERLEDEEEMNAELTAKKRKLEDECSELKRDIDDLELTLAKVEKEKHATENKVKNLTEEMAGLDEIIAKLTKEKKALQEAHQQALDDLQAEEDKVNTLTKAKVKLEQQVDDLEGSLEQEKKVRMDLERAKRKLEGDLKLTQESIMDLENDKQQLDERLKKKDFELNALNARIEDEQALGSQLQKKLKELQARIEELEEELEAERTARAKVEKLRS
notes: FLAG tag at 1138 to 1146; Two heavy chains form the two-headed cHMM; in the sample each carries a mouse ELC and RLC; For cryo-EM and negative stain the sample was cross-linked with BS3 in the presence of ATP; also called βCM; beta-cardiac myosin
- binding result [2]: binds

- binding result [1]: binds
B3: human MYL3 (vLC1), ventricular essential light chain (natural protein)
chain: not shown
notes: myosin essential light chain MYL3 (vLC1), human; also called ELC
